Assay results: patent publication US20260001928A1 (CORTERIA PHARMACEUTICALS, priority 2022, published 2026)
*1 amine or outer side, *2 acyl side, *3 side chain or, on linkers, in order; H or OH if unused. Where no end group is shown, it is not given here. Side-chain parts run from the residue outwards. [ ]: non-standard residue; d: D form. The star is where a group is joined. C20 diacid = O=C(O)CCCCCCCCCCCCCCCCCCC(=O)*; γGlu = O=C(O)[C@H](CCC(=O)[*:2])N[*:1]; NMeI = CC[C@H](C)[C@H](NC)C(=O)O; Pentanoyl = CCCCC(=O)*; AEEA = NCCOCCOCC(=O)O; Aib = CC(C)(N)C(=O)O

B1: peptide of SEQ ID NO: 238 (peptide)
peptide: Ac-IVLSLD[dV]PIKLK([AEEA-AEEA-γGlu-C20 diacid])KILLEQEKQKKQREQAETN[Aib]QILAQV-NH2
SMILES: CC[C@H](C)[C@H](NC(C)=O)C(=O)N[C@H](C(=O)N[C@@H](CC(C)C)C(=O)N[C@@H](CO)C(=O)N[C@@H](CC(C)C)C(=O)N[C@@H](CC(=O)O)C(=O)N[C@@H](C(=O)N1CCC[C@H]1C(=O)N[C@H](C(=O)N[C@@H](CCCCN)C(=O)N[C@@H](CC(C)C)C(=O)N[C@@H](CCCCNC(=O)COCCOCCNC(=O)COCCOCCNC(=O)CC[C@H](NC(=O)CCCCCCCCCCCCCCCCCCC(=O)O)C(=O)O)C(=O)N[C@@H](CCCCN)C(=O)N[C@H](C(=O)N[C@@H](CC(C)C)C(=O)N[C@@H](CC(C)C)C(=O)N[C@@H](CCC(=O)O)C(=O)N[C@@H](CCC(N)=O)C(=O)N[C@@H](CCC(=O)O)C(=O)N[C@@H](CCCCN)C(=O)N[C@@H](CCC(N)=O)C(=O)N[C@@H](CCCCN)C(=O)N[C@@H](CCCCN)C(=O)N[C@@H](CCC(N)=O)C(=O)N[C@@H](CCCNC(=N)N)C(=O)N[C@@H](CCC(=O)O)C(=O)N[C@@H](CCC(N)=O)C(=O)N[C@@H](C)C(=O)N[C@@H](CCC(=O)O)C(=O)N[C@H](C(=O)N[C@@H](CC(N)=O)C(=O)NC(C)(C)C(=O)N[C@@H](CCC(N)=O)C(=O)N[C@H](C(=O)N[C@@H](CC(C)C)C(=O)N[C@@H](C)C(=O)N[C@@H](CCC(N)=O)C(=O)N[C@H](C(N)=O)C(C)C)[C@@H](C)CC)[C@@H](C)O)[C@@H](C)CC)[C@@H](C)CC)C(C)C)C(C)C
B2: peptide of SEQ ID NO: 236 (peptide)
peptide: Ac-IVLSLD[dV]PIKLK([AEEA-AEEA-γGlu-C20 diacid])KILLEQEKQKEQREQAETN[Aib]QILAQV-NH2
SMILES: CC[C@H](C)[C@H](NC(C)=O)C(=O)N[C@H](C(=O)N[C@@H](CC(C)C)C(=O)N[C@@H](CO)C(=O)N[C@@H](CC(C)C)C(=O)N[C@@H](CC(=O)O)C(=O)N[C@@H](C(=O)N1CCC[C@H]1C(=O)N[C@H](C(=O)N[C@@H](CCCCN)C(=O)N[C@@H](CC(C)C)C(=O)N[C@@H](CCCCNC(=O)COCCOCCNC(=O)COCCOCCNC(=O)CC[C@H](NC(=O)CCCCCCCCCCCCCCCCCCC(=O)O)C(=O)O)C(=O)N[C@@H](CCCCN)C(=O)N[C@H](C(=O)N[C@@H](CC(C)C)C(=O)N[C@@H](CC(C)C)C(=O)N[C@@H](CCC(=O)O)C(=O)N[C@@H](CCC(N)=O)C(=O)N[C@@H](CCC(=O)O)C(=O)N[C@@H](CCCCN)C(=O)N[C@@H](CCC(N)=O)C(=O)N[C@@H](CCCCN)C(=O)N[C@@H](CCC(=O)O)C(=O)N[C@@H](CCC(N)=O)C(=O)N[C@@H](CCCNC(=N)N)C(=O)N[C@@H](CCC(=O)O)C(=O)N[C@@H](CCC(N)=O)C(=O)N[C@@H](C)C(=O)N[C@@H](CCC(=O)O)C(=O)N[C@H](C(=O)N[C@@H](CC(N)=O)C(=O)NC(C)(C)C(=O)N[C@@H](CCC(N)=O)C(=O)N[C@H](C(=O)N[C@@H](CC(C)C)C(=O)N[C@@H](C)C(=O)N[C@@H](CCC(N)=O)C(=O)N[C@H](C(N)=O)C(C)C)[C@@H](C)CC)[C@@H](C)O)[C@@H](C)CC)[C@@H](C)CC)C(C)C)C(C)C
B3: peptide of SEQ ID NO: 237 (peptide)
peptide: [NMeI]VLSLD[dV]PIKLK([AEEA-AEEA-γGlu-C20 diacid])KILLEQEKQKEQREQAETN[Aib]QILAQV-NH2
modifications: N-terminus assumed
SMILES: CC[C@H](C)[C@H](NC)C(=O)N[C@H](C(=O)N[C@@H](CC(C)C)C(=O)N[C@@H](CO)C(=O)N[C@@H](CC(C)C)C(=O)N[C@@H](CC(=O)O)C(=O)N[C@@H](C(=O)N1CCC[C@H]1C(=O)N[C@H](C(=O)N[C@@H](CCCCN)C(=O)N[C@@H](CC(C)C)C(=O)N[C@@H](CCCCNC(=O)COCCOCCNC(=O)COCCOCCNC(=O)CC[C@H](NC(=O)CCCCCCCCCCCCCCCCCCC(=O)O)C(=O)O)C(=O)N[C@@H](CCCCN)C(=O)N[C@H](C(=O)N[C@@H](CC(C)C)C(=O)N[C@@H](CC(C)C)C(=O)N[C@@H](CCC(=O)O)C(=O)N[C@@H](CCC(N)=O)C(=O)N[C@@H](CCC(=O)O)C(=O)N[C@@H](CCCCN)C(=O)N[C@@H](CCC(N)=O)C(=O)N[C@@H](CCCCN)C(=O)N[C@@H](CCC(=O)O)C(=O)N[C@@H](CCC(N)=O)C(=O)N[C@@H](CCCNC(=N)N)C(=O)N[C@@H](CCC(=O)O)C(=O)N[C@@H](CCC(N)=O)C(=O)N[C@@H](C)C(=O)N[C@@H](CCC(=O)O)C(=O)N[C@H](C(=O)N[C@@H](CC(N)=O)C(=O)NC(C)(C)C(=O)N[C@@H](CCC(N)=O)C(=O)N[C@H](C(=O)N[C@@H](CC(C)C)C(=O)N[C@@H](C)C(=O)N[C@@H](CCC(N)=O)C(=O)N[C@H](C(N)=O)C(C)C)[C@@H](C)CC)[C@@H](C)O)[C@@H](C)CC)[C@@H](C)CC)C(C)C)C(C)C
B4: peptide of SEQ ID NO: 235 (peptide)
peptide: Pentanoyl-VLSLD[dV]PIKLK([AEEA-γGlu-C20 diacid])KILLEQEKQKKQREQAETN[Aib]QILAQV-NH2
SMILES: CCCCC(=O)N[C@H](C(=O)N[C@@H](CC(C)C)C(=O)N[C@@H](CO)C(=O)N[C@@H](CC(C)C)C(=O)N[C@@H](CC(=O)O)C(=O)N[C@@H](C(=O)N1CCC[C@H]1C(=O)N[C@H](C(=O)N[C@@H](CCCCN)C(=O)N[C@@H](CC(C)C)C(=O)N[C@@H](CCCCNC(=O)COCCOCCNC(=O)CC[C@H](NC(=O)CCCCCCCCCCCCCCCCCCC(=O)O)C(=O)O)C(=O)N[C@@H](CCCCN)C(=O)N[C@H](C(=O)N[C@@H](CC(C)C)C(=O)N[C@@H](CC(C)C)C(=O)N[C@@H](CCC(=O)O)C(=O)N[C@@H](CCC(N)=O)C(=O)N[C@@H](CCC(=O)O)C(=O)N[C@@H](CCCCN)C(=O)N[C@@H](CCC(N)=O)C(=O)N[C@@H](CCCCN)C(=O)N[C@@H](CCCCN)C(=O)N[C@@H](CCC(N)=O)C(=O)N[C@@H](CCCNC(=N)N)C(=O)N[C@@H](CCC(=O)O)C(=O)N[C@@H](CCC(N)=O)C(=O)N[C@@H](C)C(=O)N[C@@H](CCC(=O)O)C(=O)N[C@H](C(=O)N[C@@H](CC(N)=O)C(=O)NC(C)(C)C(=O)N[C@@H](CCC(N)=O)C(=O)N[C@H](C(=O)N[C@@H](CC(C)C)C(=O)N[C@@H](C)C(=O)N[C@@H](CCC(N)=O)C(=O)N[C@H](C(N)=O)C(C)C)[C@@H](C)CC)[C@@H](C)O)[C@@H](C)CC)[C@@H](C)CC)C(C)C)C(C)C

Tests used:
[1] = target: T1, CRF1R (corticotropin-releasing factor receptor 1), on the CRF1R-overexpression CHO-K1 cell line clone 2 (UniProt P34998 24-415, limits assumed); assay: cell-based or functional assay
T1 sequence (looked up): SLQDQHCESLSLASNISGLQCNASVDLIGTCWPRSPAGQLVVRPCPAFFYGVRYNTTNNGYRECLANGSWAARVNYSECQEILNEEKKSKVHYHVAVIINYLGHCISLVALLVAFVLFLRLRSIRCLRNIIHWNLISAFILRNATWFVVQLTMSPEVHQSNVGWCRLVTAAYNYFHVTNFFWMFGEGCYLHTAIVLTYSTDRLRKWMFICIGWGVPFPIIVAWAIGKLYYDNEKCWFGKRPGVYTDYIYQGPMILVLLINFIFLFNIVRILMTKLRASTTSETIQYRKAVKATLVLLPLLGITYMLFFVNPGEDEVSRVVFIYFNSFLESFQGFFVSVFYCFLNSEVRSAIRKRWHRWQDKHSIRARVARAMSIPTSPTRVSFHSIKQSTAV

[2] = target: Rat CRF2 a (corticotropin-releasing factor receptor 2), on the A7R5 rat aortic smooth muscle cell line (rat, UniProt P47866 20-411); assay: cell-based or functional assay
Rat CRF2 a (corticotropin-releasing factor receptor 2), on the A7R5 rat aortic smooth muscle cell line, sequence (P47866 20-411): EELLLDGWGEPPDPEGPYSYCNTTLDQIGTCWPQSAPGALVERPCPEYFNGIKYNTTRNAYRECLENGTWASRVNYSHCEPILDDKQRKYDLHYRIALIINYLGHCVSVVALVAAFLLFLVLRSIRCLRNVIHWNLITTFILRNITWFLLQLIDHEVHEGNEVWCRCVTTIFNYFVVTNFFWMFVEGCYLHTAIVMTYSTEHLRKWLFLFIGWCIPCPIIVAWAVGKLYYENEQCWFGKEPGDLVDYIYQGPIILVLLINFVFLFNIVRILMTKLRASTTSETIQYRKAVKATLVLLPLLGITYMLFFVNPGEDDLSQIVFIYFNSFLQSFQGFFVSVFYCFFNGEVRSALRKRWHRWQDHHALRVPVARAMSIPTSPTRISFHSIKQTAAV

Row | Binder | EC50 [nM] (cAMP, CRF1R-overexpression CHO-K1 cells) [1] | Emax (% I) (cAMP, 100% = Sauvagine at 100 nM) [1] | EC50 [nM] 0% HSA (cAMP, A7R5 rat aortic smooth muscle cells) [2] [nM]
1 | B1 | > 250 | 12 | 0.09
2 | B2 | > 250 | 7 | 2.81
3 | B3 | > 250 | 6 | 0.63
4 | B4 | > 250 | 27 | 0.17
